The values below come from patent US9549967B2, “Regulation of sodium channels by PLUNC proteins” (The University of North Carolina at Chapel Hill, priority 2009, dated 2017).

For series [1], the target named is ENaC endogenous to primary human bronchial epithelial cultures (human) (UniProt P37088). Description: cell-based or functional assay.
Series [2] has as its target αβγENaC expressed in Xenopus laevis oocytes (rat) (UniProt P37089). Put plainly: cell-based or functional assay.
The test system of series [3] is T1, Recombinant SPLUNC1 (V5/6His-tagged, purified from HEK293 media).
T1 sequence: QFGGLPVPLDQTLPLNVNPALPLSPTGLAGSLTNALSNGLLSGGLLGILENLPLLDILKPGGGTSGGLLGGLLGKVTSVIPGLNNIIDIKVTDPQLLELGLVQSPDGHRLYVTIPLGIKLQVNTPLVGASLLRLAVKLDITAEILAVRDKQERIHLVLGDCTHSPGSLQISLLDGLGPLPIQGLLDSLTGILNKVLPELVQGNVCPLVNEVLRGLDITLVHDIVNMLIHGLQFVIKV

Series [4] has as its target yfp-tagged αENaC stably expressed on JME nasal epithelial cells. Description: fluorescence binding isotherm on polarized JME cells expressing yfp-αENaC, empty-vector cells as non-specific control, Hill fit.
Series [5] concerns the target T2, ENaC containing the βS518C mutant (Rattus norvegicus, UniProt P37089+P37090+P37091, S518C).
T2 construct: expressed in transfected cells; host or cells: Xenopus oocytes
T2 sequence (P37089 1-698): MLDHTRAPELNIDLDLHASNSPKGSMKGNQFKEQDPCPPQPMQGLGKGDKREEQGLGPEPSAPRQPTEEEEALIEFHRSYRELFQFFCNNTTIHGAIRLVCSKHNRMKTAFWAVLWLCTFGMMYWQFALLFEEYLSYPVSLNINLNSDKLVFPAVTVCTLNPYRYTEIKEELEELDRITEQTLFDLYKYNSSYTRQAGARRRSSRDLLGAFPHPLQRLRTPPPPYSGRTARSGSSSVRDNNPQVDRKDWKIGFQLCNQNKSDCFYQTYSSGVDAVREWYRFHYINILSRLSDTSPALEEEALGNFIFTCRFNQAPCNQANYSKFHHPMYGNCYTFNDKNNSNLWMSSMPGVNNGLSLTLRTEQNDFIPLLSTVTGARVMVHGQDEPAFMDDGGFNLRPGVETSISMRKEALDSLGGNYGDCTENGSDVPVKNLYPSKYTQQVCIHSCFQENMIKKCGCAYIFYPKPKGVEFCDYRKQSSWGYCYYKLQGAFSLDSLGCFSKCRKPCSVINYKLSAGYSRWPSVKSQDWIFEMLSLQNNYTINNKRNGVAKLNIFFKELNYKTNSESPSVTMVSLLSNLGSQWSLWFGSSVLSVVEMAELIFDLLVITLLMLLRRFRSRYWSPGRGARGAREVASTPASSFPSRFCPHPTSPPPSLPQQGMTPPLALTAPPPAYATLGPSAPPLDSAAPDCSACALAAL
T2 sequence (P37090 1-638 S518C): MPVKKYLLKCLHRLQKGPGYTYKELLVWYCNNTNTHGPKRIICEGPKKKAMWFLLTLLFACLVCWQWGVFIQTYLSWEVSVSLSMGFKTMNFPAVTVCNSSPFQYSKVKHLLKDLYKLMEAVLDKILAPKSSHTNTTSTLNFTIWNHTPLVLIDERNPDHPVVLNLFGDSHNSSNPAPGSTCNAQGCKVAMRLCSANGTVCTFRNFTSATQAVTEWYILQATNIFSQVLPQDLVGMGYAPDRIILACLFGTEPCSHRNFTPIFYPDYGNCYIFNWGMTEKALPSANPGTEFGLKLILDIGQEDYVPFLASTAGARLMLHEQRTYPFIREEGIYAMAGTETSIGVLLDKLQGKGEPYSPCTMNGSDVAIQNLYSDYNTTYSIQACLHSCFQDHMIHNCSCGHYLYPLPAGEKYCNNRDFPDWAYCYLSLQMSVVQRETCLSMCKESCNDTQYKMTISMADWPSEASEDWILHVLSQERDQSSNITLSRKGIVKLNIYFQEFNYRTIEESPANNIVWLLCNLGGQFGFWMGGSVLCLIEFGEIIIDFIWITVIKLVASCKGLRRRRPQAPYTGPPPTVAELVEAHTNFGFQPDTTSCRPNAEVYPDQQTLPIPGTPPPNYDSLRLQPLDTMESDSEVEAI
T2 sequence (P37091 1-650): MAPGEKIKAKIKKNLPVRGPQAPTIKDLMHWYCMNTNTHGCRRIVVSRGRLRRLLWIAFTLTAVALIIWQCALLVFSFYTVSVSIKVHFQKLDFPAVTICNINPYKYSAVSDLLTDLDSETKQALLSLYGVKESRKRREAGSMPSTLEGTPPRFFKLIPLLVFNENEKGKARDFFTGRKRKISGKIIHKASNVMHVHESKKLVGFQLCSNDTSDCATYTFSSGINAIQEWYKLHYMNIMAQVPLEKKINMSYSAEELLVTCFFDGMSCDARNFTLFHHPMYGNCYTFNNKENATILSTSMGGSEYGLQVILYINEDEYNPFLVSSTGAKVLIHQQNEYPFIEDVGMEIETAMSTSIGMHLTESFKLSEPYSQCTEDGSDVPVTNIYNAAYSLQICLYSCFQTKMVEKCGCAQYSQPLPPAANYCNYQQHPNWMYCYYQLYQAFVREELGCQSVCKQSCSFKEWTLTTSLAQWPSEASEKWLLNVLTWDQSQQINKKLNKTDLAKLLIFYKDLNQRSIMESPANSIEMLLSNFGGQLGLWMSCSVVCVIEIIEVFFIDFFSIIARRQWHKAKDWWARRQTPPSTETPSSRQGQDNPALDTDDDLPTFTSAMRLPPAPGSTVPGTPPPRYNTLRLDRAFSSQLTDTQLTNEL
Put plainly: Oocyte current of ENaC containing the βS518C mutant with MTSET. Particulars: addition of MTSET. Type of series: cell-based. How it is done:
Oocyte studies. Xenopus laevis oocytes were harvested and injected as described (Donaldson, et al., J. Biol. Chem. 277:8338 (2002)). Defolliculated healthy stage V-VI oocytes were injected with 0.3 ng of cRNA of each ENaC subunit. Injected oocytes were kept in modified Barth's saline (in mM: 88 NaCl, 1 KCl, 2.4 NaHCO3, 0.3 Ca(NO3)2, 0.41 CaCl2, 0.82 MgSO4, and 15 HEPES, adjusted to pH 7.35 with Tris). Oocytes were studied 24 hr after injection using the two electrode voltage clamp technique as previously described (Donaldson, et al., J. Biol. Chem. 277:8338 (2002)). Oocytes were clamped at a holding potential of […]. The change in amiloride-sensitive whole cell current as an indicator of ENaC activity was determined by subtracting the corresponding current value measured in the presence of 10 μM amiloride from that measured before the application of amiloride.
The effect of SPLUNC1 on the number of ENaC channels in the plasma membrane was tested by expressing SPLUNC1 and αENaC in Xenopus oocytes. After surface biotinylation of αENaC, total lysate was prepared and lysate from 3-4 eggs was separated on a 10% gel.

The target of series [6] is αβγENaC expressed in Xenopus laevis oocytes (rat, UniProt P37089 1-698; P37090 1-638; P37091 1-650). Description: cell-based or functional assay.

As usually defined, the Kd is the concentration at which binding is half-saturated. The low end stands for tighter binding, the high end for weaker binding.

ENaC endogenous to primary human bronchial epithelial cultures (human), sequence (P37088 whole entry, chain 1 of 3): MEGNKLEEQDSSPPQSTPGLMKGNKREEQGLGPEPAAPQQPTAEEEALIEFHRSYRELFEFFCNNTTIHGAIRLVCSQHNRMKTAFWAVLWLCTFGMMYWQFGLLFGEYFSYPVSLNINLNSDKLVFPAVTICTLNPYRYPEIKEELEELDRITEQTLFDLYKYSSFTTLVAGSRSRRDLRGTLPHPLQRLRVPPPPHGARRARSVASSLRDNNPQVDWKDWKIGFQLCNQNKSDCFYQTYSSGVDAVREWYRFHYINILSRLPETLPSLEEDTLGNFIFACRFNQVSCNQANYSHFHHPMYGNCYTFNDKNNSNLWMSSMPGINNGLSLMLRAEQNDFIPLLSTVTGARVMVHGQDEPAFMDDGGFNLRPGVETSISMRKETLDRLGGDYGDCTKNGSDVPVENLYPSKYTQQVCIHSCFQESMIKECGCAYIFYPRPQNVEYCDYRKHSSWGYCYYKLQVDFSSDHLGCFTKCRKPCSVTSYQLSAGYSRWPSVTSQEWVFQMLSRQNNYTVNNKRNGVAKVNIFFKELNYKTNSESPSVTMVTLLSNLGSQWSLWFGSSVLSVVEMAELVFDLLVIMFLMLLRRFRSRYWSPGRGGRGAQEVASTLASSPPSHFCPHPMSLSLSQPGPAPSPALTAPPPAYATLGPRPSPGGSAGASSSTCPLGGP
ENaC endogenous to primary human bronchial epithelial cultures (human), sequence (P51168 whole entry, chain 2 of 3, further chain): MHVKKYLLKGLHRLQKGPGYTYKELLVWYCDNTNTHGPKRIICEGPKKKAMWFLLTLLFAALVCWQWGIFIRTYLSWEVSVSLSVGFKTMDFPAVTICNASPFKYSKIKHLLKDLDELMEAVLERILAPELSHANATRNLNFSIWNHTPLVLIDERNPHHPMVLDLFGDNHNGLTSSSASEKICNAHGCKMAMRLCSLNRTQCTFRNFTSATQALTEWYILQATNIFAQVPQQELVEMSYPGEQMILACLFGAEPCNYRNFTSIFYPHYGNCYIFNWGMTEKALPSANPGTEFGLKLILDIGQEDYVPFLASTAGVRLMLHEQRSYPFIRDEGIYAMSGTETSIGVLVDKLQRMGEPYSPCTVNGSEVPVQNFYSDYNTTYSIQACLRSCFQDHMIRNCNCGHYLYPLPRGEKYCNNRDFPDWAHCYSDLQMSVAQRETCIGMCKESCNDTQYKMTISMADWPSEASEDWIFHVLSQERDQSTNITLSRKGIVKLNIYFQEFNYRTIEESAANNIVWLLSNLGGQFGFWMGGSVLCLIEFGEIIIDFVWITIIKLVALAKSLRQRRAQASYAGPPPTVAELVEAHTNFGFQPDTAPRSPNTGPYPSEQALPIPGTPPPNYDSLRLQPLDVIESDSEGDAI
ENaC endogenous to primary human bronchial epithelial cultures (human), sequence (P51170 whole entry, chain 3 of 3, further chain): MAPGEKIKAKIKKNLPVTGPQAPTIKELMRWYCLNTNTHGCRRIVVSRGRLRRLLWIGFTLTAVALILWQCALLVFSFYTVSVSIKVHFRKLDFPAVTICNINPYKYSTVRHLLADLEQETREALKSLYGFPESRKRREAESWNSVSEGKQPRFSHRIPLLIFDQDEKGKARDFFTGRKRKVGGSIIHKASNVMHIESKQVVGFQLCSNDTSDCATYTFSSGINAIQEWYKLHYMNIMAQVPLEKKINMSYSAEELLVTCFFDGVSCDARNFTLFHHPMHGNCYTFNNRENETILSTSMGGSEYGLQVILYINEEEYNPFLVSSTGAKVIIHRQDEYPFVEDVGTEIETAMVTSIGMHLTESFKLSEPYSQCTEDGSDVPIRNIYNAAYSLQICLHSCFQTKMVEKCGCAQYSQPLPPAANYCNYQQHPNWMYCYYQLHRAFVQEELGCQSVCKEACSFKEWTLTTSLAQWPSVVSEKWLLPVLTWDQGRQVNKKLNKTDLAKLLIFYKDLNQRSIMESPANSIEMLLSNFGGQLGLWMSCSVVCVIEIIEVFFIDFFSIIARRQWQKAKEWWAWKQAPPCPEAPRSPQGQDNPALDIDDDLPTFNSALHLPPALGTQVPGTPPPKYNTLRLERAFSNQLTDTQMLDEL
yfp-tagged αENaC stably expressed on JME nasal epithelial cells, sequence (P37088 whole entry): as the sequence (P37088 whole entry, chain 1 of 3) above

Regarding “Recombinant SPLUNC1 (V5/6His-tagged, purified from HEK293 media) (from UniProt Q9NP55 20-256)”, in series [1], the ENaC inhibition worked out at 70% and the transepithelial electrical resistance came to 33%. Besides, the decrease in ENaC currents (amiloride-sensitive whole cell current, oocytes) in series [2] was found to be 70%.

Consider trypsin, for which the “cleavage of fluorogenic substrate BGAR-MCA by 1.0 or 0.3 U/ml trypsin” value in series [3] is given as 50 ng/ml rSPLUNC1 had only a modest affect (˜10%) on the ability of either 1.0 or 0.3 U/ml trypsin to cleave a fluorogenic substrate.

In turn, “Texas red-labeled recombinant SPLUNC1 (from UniProt Q9NP55 20-256)” came in with a Kd in series [4] of 0.055 µg/mL.

Turning to `C[N+](C)(C)CCSS(C)(=O)=O.[Br-]` [MTSET, reference compound], the “ENaC Po” value in series [5] is reported as 1.0.

B1: V5-tagged SPLUNC1 expressed in Xenopus oocytes (other, not shown: small tags and cut ends)
chain: QFGGLPVPLDQTLPLNVNPALPLSPTGLAGSLTNALSNGLLSGGLLGILENLPLLDILKPGGGTSGGLLGGLLGKVTSVIPGLNNIIDIKVTDPQLLELGLVQSPDGHRLYVTIPLGIKLQVNTPLVGASLLRLAVKLDITAEILAVRDKQERIHLVLGDCTHSPGSLQISLLDGLGPLPIQGLLDSLTGILNKVLPELVQGNVCPLVNEVLRGLDITLVHDIVNMLIHGLQFVIKV
B1: the “decrease in amiloride-sensitive ENaC current relative to control oocytes” value in series [6] is around 70%.
